Measurements from patent publication US7858322B2, “Method of determining inhibition of binding to TRPM7 protein” (NoNo, Inc., priority 2003, dated 2010).
No end group written: not given here. *: point of attachment. Biotin = O=C1N[C@H]2[C@H](CS[C@H]2CCCCC(=O)*)N1

Tests used:
Assay in all cases: G assays, titrations or binding assays of peptides
PAR3 d3 = target: T1, PAR3 d3 (Homo sapiens, UniProt Q8TEW0, R682S); details: peptide demonstrated to bind PAR3 d3 in G assays
T1 construct: made in house; host or cells: E. coli (DH5α, BL21 or JM109)
Method: (§1) In one aspect, the invention provides an assay in which a GST/PDZ fusion protein is immobilized on a surface (G assay). […] In a preferred embodiment, the assay is carried out as follows:
(§2) (3) The binding of the biotinylated peptide to the GST/PDZ fusion protein surface can be detected using a variety of methods and detectors known to one of skill in the art. In one embodiment, 100 μl per well of 0.5 μg/ml streptavidin-horseradish peroxidase (HRP) conjugate dissolved in BSA/PBS is added and allowed to react for 20 minutes at 4° C. The plate is then washed 5 times with 50 mM Tris pH 8.0 containing 0.2% Tween 20, and developed by addition of 100 μl per well of HRP-substrate solution (TMB, Dako) for 20 minutes at room temperature (RT). The reaction of the HRP and its substrate is terminated by addition of 100 μl per well of 1 M sulfuric acid, and the optical density (O.D.) of each well of the plate is read at 450 um.
(§3) (4) Specific binding of a PL peptide and a PDZ domain polypeptide is determined by comparing the signal from the well(s) in which the PL peptide and PDZ domain polypeptide are combined, with the background signal(s). […] Typically a specific or selective reaction will be at least twice background signal, more typically more than 5 times background, and most typically 10 or more times the background signal. […] Correspondingly, a statistical test (e.g. a T-test) comparing repeated measurements of the signal with repeated measurements of the background will result in a p-value <0.05, more typically a p-value <0.01, and most typically a p-value <0.001 or less. As noted, in an embodiment of the G assay, the signal from binding of a given PL peptide to immobilized (surface bound) GST polypeptide alone is one suitable negative control (sometimes referred to as B1). Because all measurement are done in multiples (i.e. at least duplicate) the arithmetic mean (or, equivalently, average.) of several measurements is used in determining the binding, and the standard error of the mean is used in determining the probable error in the measurement of the binding. The standard error of the mean of N measurements equals the square root of the following: the sum of the squares of the difference between each measurement and the mean, divided by the product of (N) and (N−1). Thus, in one embodiment, specific binding of the PDZ protein to the platebound peptide is determined by comparing the mean signal (“mean S”) and standard error of the signal (“SE”) for a particular PL-PDZ combination with the mean B1.

INADL d3 = target: T2, INADL d3 (Homo sapiens, UniProt Q8NI35); details: peptide demonstrated to bind INADL d3 in G assays
T2 construct: made in house; host or cells: E. coli (DH5α, BL21 or JM109)
T2 sequence (Q8NI35 with tags, fused parts or gaps): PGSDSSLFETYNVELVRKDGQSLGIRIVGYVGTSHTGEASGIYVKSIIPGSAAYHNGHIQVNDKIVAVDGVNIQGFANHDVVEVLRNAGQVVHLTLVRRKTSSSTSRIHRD
Method: as §1, §2, §3

ZO-1 d2 = target: T3, ZO-1 d2 (Homo sapiens, UniProt Q07157, DEL264-264); details: peptide demonstrated to bind ZO-1 d2 in G assays
T3 construct: made in house; host or cells: E. coli (DH5α, BL21 or JM109)
T3 sequence (Q07157 with tags, fused parts or gaps DEL264-264): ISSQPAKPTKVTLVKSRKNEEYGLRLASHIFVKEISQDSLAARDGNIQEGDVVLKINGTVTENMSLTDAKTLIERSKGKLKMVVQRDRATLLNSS
Method: as §1, §2, §3

RIM2 d1 = target: T4, RIM2 d1 (Homo sapiens, UniProt Q9UQ26); details: peptide demonstrated to bind RIM2 d1 in G assays
T4 construct: made in house; host or cells: E. coli (DH5α, BL21 or JM109)
T4 sequence (Q9UQ26 632-757): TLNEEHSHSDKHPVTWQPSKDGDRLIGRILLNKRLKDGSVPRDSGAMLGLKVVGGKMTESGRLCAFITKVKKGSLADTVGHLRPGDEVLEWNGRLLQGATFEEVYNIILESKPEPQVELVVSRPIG
Method: as §1, §2, §3

Syntrophin 1 alpha d1 = target: T5, Syntrophin 1 alpha d1 (Homo sapiens, UniProt Q13424); details: peptide demonstrated to bind syntrophin 1 alpha d1 in G assays
T5 construct: made in house; host or cells: E. coli (DH5α, BL21 or JM109)
T5 sequence (Q13424 84-177): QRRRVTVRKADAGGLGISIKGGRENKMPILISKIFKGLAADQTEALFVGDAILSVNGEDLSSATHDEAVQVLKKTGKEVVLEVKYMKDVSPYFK
Method: In one aspect, the invention provides an assay in which a GST/PDZ fusion protein is immobilized on a surface (G assay). The binding of labeled PL peptide (e.g., as listed in TABLE 2 and TABLE 4) to this surface is then measured. In a preferred embodiment, the assay is carried out as follows:
(1) A PDZ-domain polypeptide is bound to a surface, e.g. a protein binding surface. In a preferred embodiment, a GST/PDZ fusion protein containing one or more PDZ domains is bound to a polystyrene 96-well plate. […] In one embodiment, the GST/PDZ fusion protein is bound via an anti-GST antibody that is coated onto the 96-well plate. Adequate binding to the plate can be achieved when: • a. 100 μl per well of 5 μg/ml goat anti-GST polyclonal antibody (Pierce) in PBS is added to a polystyrene 96-well plate (e.g., Nunc Polysorp) at 4° C. for 12 hours. • b. The plate is blocked by addition of 200 μl per well of PBS/BSA for 2 hours at 4° C. • c. The plate is washed 3 times with PBS. • d. 50 μl per well of 5 μg/ml GST/PDZ fusion protein) or, as a negative control, GST polypeptide alone (i.e. not a fusion protein) in PBS/BSA is added to the plate for 2 hours at 4° C. • e. the plate is again washed 3 times with PBS.
(2) Biotinylated PL peptides are allowed to react with the surface by addition of 50 μl per well of 20 μM solution of the biotinylated peptide in PBS/BSA for 10 minutes at 4° C., followed by an additional 20 minute incubation at 25° C. The plate is washed 3 times with ice cold PBS.
(3) The binding of the biotinylated peptide to the GST/PDZ fusion protein surface can be detected using a variety of methods and detectors known to one of skill in the art. In one embodiment, 100 μl per well of 0.5 μg/ml streptavidin-horseradish peroxidase (HRP) conjugate dissolved in BSA/PBS is added and allowed to react for 20 minutes at 4° C. The plate is then washed 5 times with 50 mM Tris pH 8.0 containing 0.2% Tween 20, and developed by addition of 100 μl per well of HRP-substrate solution (TMB, Dako) for 20 minutes at room temperature (RT). The reaction of the HRP and its substrate is terminated by addition of 100 μl per well of 1 M sulfuric acid, and the optical density (O.D.) of each well of the plate is read at […].
(4) Specific binding of a PL peptide and a PDZ domain polypeptide is determined by comparing the signal from the well(s) in which the PL peptide and PDZ domain polypeptide are combined, with the background signal(s). The background signal is the signal found in the negative control(s). Typically a specific or selective reaction will be at least twice background signal, more typically more than 5 times background, and most typically 10 or more times the background signal. In addition, a statistically significant reaction will involve multiple measurements of the reaction with the signal and the background differing by at least two standard errors, more typically four standard errors, and most typically six or more standard errors. Correspondingly, a statistical test (e.g. a T-test) comparing repeated measurements of the signal with repeated measurements of the background will result in a p-value <0.05, more typically a p-value <0.01, and most typically a p-value <0.001 or less. As noted, in an embodiment of the G assay, the signal from binding of a given PL peptide to immobilized (surface bound) GST polypeptide alone is one suitable negative control (sometimes referred to as B1). Because all measurement are done in multiples (i.e. at least duplicate) the arithmetic mean (or, equivalently, average.) of several measurements is used in determining the binding, and the standard error of the mean is used in determining the probable error in the measurement of the binding. The standard error of the mean of N measurements equals the square root of the following: the sum of the squares of the difference between each measurement and the mean, divided by the product of (N) and (N−1). […]

T1 sequence (Q8TEW0 with tags, fused parts or gaps R682S): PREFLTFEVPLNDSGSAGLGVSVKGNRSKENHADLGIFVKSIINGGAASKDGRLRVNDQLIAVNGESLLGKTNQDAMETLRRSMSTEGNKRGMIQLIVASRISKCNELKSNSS

| Substance | POZ domain bound (PAR3 d3) | POZ domain bound (INADL d3) | POZ domain bound (ZO-1 d2) | POZ domain bound (RIM2 d1) | POZ domain bound (Syntrophin 1 alpha d1) |
| --- | --- | --- | --- | --- | --- |
| DFRPSFKHILFRRARRGFRQ (Biotin-DFRPSFKHILFRRARRGFRQ) | PAR3 D3 | INADL D3 | ZO-1 D2 | RIM2 D1 | Syntrophin 1 alpha D1 |
| VPGALDYAAFSSALYGESDL (Biotin-VPGALDYAAFSSALYGESDL) |  |  |  |  | Syntrophin 1 alpha D1 |
| HDFRRAFKKILARGDRKRIV (Biotin-HDFRRAFKKILARGDRKRIV) | PAR3 D3 | INADL D3 | ZO-1 D2 | RIM2 D1 | Syntrophin 1 alpha D1 |
| RELVDRGEVRQFTLRHWLKV (Biotin-RELVDRGEVRQFTLRHWLKV) | PAR3 D3 | INADL D3 | ZO-1 D2 | RIM2 D1 | Syntrophin 1 alpha D1 |
| ILNSIQVMRAQMNQIQSVEV (Biotin-ILNSIQVMRAQMNQIQSVEV) | PAR3 D3 | INADL D3 | ZO-1 D2 |  | Syntrophin 1 alpha D1 |
| QISPGGLEPPSEKHFRETEV |  |  |  |  | Syntrophin 1 alpha D1 |
| VHKVRNKFKAKCSLCRLYII (Biotin-VHKVRNKFKAKCSLCRLYII; cysteine pairing not given here) | PAR3 D3 | INADL D3 | ZO-1 D2 | RIM2 D1 | Syntrophin 1 alpha D1 |
| VHDAESSOEDGYDWGPATDL: peptide, SEQ ID NO:330 (Biotin-VHDAESSDEDGYDWGPATDL) |  |  |  |  | Syntrophin 1 alpha D1 |
| GRWTGRAMSAWKPTRRETEV (Biotin-GRWTGRAMSAWKPTRRETEV) |  | INADL D3 |  |  | Syntrophin 1 alpha D1 |
| HSCCNRARQERLQRRRETQV (Biotin-HSCCNRARQERLQRRRETQV; cysteine pairing not given here) | PAR3 D3 | INADL D3 | ZO-1 D2 |  | Syntrophin 1 alpha D1 |
| QDFRRAFRRILARPWTQTAW (Biotin-QDFRRAFRRILARPWTQTAW) | PAR3 D3 | INADL D3 | ZO-1 D2 | RIM2 D1 | Syntrophin 1 alpha D1 |
| AVGGRPARGGRLQGRRQTQV |  |  |  |  | Syntrophin 1 alpha D1 |
| DTLLLTENEGDKTEEQVSYV (Biotin-DTLLLTENEGDKTEEQVSYV) | PAR3 D3 |  |  |  | Syntrophin 1 alpha D1 |
| KKKKQPGNSTKESESTNSVRLML (Biotin-KKKKQPGNSTKESESTNSVRLML) | PAR3 D3 | INADL D3 | ZO-1 D2 | RIM2 D1 | Syntrophin 1 alpha D1 |
| TQGFPGPATWRRISSLESEV (Biotin-TQGFPGPATWRRISSLESEV) |  | INADL D3 |  |  | Syntrophin 1 alpha D1 |
| PYSELNYETSHYPASPDSWV (Biotin-PYSELNYETSHYPASPDSWV) |  |  |  |  | Syntrophin 1 alpha D1 |
| FNGSSNGHVYEKLSSIESDV (Biotin-FNGSSNGHVYEKLSSIESDV) |  |  |  |  | Syntrophin 1 alpha D1 |
| HHLVAQRDIRQFQLQHWLAI (Biotin-HHLVAQRDIRQFQLQHWLAI) | PAR3 D3 | INADL D3 | ZO-1 D2 | RIM2 D1 | Syntrophin 1 alpha D1 |
| YGRKKRRQRRRKLSSIESDV (Biotin-YGRKKRRQRRRKLSSIESDV) | PAR3 D3 |  | ZO-1 D2 |  | Syntrophin 1 alpha D1 |
| AAGGRSARGGRLQGRRETAL |  |  |  |  | Syntrophin 1 alpha D1 |
| PIPAGGCTFSGIFPTLTSPL (Biotin-PIPAGGCTFSGIFPTLTSPL) | PAR3 D3 | INADL D3 |  |  | Syntrophin 1 alpha D1 |
| LAVLAYSITLVMLWSIWQYA (Biotin-LAVLAYSITLVMLWSIWQYA) | PAR3 D3 | INADL D3 | ZO-1 D2 | RIM2 D1 | Syntrophin 1 alpha D1 |
| SSKSKSSEESQTFFGLYKL (Biotin-SSKSKSSEESQTFFGLYKL) | PAR3 D3 | INADL D3 | ZO-1 D2 | RIM2 D1 | Syntrophin 1 alpha D1 |
| YGRKKRRQRRRNDNIALLVQ | PAR3 D3 |  | ZO-1 D2 | RIM2 D1 | Syntrophin 1 alpha D1 |
| TGSALQAWRHTSRQATESTV (Biotin-TGSALQAWRHTSRQATESTV) |  |  |  |  | Syntrophin 1 alpha D1 |
| TFKGTPTAENPEYLGLDVPV (Biotin-TFKGTPTAENPEYLGLDVPV) |  |  |  |  | Syntrophin 1 alpha D1 |
